We go through twelve molecules from patent US20120039802A1 (published 2012).

The target in assay [1] is T1, human cMet expressed on 3T3 cells (human, UniProt P08581 25-1390).
T1 construct: whole, on cells; cells fixed with glutaraldehyde; also called cell surface-expressed human cMet; 3T3 cells that over-express human cMet
Description: whole cell phage ELISA, 3T3 human cMet vs 3T3. In a few lines: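 3T3 cells over-expressing human cMet, compared against parental 3T3, seeded at 10⁵ per well and fixed with 0.1% glutaraldehyde for 12 min at 37 C. Blocked peptide-displaying phage bound for 1 h at room temperature. After PBST washes, bound phage was detected with HRP-conjugated anti-M13 antibody.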
On the technique in general: ELISA stands for enzyme-linked immunosorbent assay.

The target in assay [2] is T2, cMet-Fc fusion protein (extracellular domain of the cMet receptor expressed as an Fc-fusion protein) (human, UniProt P08581 25-932).
T2 construct: extracellular domain; also called soluble cMet-Fc-fusion protein; soluble cMet receptor; not shown: Fc part
T2 sequence (P08581 25-932): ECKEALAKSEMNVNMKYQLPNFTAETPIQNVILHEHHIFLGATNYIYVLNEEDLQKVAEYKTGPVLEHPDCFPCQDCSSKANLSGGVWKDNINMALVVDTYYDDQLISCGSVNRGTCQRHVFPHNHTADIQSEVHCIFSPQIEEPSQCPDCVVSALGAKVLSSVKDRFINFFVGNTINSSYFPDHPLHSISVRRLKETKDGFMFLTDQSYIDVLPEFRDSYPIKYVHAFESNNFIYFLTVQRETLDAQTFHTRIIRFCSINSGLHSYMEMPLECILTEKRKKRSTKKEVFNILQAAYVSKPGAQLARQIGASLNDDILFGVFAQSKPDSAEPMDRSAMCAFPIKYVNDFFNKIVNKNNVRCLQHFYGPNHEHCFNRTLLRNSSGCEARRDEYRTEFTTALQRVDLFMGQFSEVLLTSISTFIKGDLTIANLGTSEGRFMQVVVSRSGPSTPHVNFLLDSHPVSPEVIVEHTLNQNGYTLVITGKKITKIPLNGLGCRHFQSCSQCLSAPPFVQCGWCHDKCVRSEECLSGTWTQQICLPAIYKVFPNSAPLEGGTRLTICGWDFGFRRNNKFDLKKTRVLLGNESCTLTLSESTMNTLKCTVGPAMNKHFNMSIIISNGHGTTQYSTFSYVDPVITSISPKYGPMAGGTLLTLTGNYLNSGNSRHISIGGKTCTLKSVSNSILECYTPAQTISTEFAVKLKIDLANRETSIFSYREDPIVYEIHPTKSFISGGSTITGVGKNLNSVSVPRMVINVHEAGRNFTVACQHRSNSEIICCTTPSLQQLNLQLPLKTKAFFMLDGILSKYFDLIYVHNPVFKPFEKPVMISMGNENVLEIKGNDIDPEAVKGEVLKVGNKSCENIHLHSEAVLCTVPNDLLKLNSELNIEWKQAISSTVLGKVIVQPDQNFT
Description: phage ELISA, cMet-Fc vs TRAIL-Fc. In a few lines:
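Plates coated overnight at 4 C with 0.5 μg/mL cMet-Fc, or TRAIL-Fc as background, were blocked with 3% BSA in PBST. Peptide-displaying phage were bound 2 h at room temperature. Bound phage were detected with HRP-conjugated anti-M13 antibody.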

For assay [3], the target named is T2, cMet-Fc fusion protein (extracellular …). Description: phage ELISA on cMet-Fc, competitor HGF 100 ng/mL. In a few lines:
(§1)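 Plates coated with 0.5 μg/mL cMet-Fc, with TRAIL-Fc as background, then blocked with 3% BSA. Bound phage detected with HRP anti-M13 antibody.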

For assay [4] the target is unchanged. Description: phage ELISA on cMet-Fc, competitor HGF 500 ng/mL. In a few lines:
as §1

T1 sequence (P08581 25-1390): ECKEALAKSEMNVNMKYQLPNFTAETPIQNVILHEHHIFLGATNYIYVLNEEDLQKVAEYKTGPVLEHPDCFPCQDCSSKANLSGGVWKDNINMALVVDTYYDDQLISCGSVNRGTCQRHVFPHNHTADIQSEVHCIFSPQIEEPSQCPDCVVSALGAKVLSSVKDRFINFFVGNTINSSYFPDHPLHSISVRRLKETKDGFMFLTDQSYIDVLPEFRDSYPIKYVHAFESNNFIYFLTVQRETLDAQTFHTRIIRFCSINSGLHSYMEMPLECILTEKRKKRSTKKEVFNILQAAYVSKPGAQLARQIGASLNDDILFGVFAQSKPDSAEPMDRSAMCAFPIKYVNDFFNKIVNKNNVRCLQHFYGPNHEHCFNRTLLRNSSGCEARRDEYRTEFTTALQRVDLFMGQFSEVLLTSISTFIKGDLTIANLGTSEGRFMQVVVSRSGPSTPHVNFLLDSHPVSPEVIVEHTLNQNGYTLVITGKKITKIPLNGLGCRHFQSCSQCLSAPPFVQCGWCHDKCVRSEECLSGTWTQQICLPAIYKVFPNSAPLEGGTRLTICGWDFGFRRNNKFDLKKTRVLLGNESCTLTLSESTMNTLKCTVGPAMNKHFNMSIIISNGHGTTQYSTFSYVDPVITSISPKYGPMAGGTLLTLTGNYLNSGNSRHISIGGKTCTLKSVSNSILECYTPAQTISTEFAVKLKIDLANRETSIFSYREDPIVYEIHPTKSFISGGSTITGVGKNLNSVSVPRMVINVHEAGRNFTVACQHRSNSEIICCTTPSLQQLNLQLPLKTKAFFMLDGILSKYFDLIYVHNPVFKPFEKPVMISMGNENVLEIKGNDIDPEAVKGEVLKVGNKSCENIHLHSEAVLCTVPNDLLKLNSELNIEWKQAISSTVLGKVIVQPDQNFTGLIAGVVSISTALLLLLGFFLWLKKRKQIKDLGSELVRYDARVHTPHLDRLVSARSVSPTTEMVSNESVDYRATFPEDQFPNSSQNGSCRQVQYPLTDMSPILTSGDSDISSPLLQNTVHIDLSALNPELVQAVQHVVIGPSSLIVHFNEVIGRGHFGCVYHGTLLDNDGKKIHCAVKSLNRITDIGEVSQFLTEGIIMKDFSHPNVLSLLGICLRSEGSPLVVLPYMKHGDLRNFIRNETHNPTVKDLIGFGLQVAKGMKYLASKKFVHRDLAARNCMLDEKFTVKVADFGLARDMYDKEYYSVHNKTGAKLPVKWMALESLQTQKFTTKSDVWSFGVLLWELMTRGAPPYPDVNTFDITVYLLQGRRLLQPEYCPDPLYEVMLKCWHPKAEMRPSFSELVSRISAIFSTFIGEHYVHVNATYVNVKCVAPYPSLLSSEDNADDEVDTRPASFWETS

B1: 451-B12 peptide-displaying phage (SEQ ID NO: 384) (peptide)
peptide: GSFTACNKTSTTRQPCNPYAP
B1: the “WC ELISA (fold over background)” value in assay [1] stood at 1.37 fold. In addition, in assay [2], the “Protein ELISA (fold over background)” value turned out to be 3.1 fold. Besides, the figures for the “% of binding in the absence of HGF” value in assay [3] and in assay [4] were 61% and 27%, respectively.

B2: 333-C03 peptide-displaying phage (SEQ ID NO: 391) (peptide)
peptide: GDDFHCEFIDDYQSEICYFNDP
In the case of B2, in assay [1], the “WC ELISA (fold over background)” value was determined as 1.37 fold. Also, the “Protein ELISA (fold over background)” value in assay [2] was 12.4 fold. Further, the figures for the “% of binding in the absence of HGF” value in assay [3] and in assay [4] were 52% and 43%, respectively.

B3: 442-E03 peptide-displaying phage (SEQ ID NO: 381) (peptide)
peptide: GSGMGCHQVNISTGDCAEDAP
Consider B3, for which the “WC ELISA (fold over background)” value in assay [1] worked out at 1.43 fold. The “Protein ELISA (fold over background)” value in assay [2] stood at 3.9 fold. Further, the “% of binding in the absence of HGF” value in assay [3] stood at 130%; in assay [4], 81%.

B4: 546-B01 peptide-displaying phage (SEQ ID NO: 393) (peptide)
peptide: GDSYNCSWDSKTFEVTCLYADP
Turning to B4, the “WC ELISA (fold over background)” value in assay [1] was 1.2 fold. Further, in assay [2], the “Protein ELISA (fold over background)” value was determined as 8.4 fold. Also, the “% of binding in the absence of HGF” value came to 95% in assay [3] and 77% in assay [4].

B5: 465-B07 peptide-displaying phage (SEQ ID NO: 385) (peptide)
peptide: GSELFCFYHHQGYEGCDVLAP
B5: the “WC ELISA (fold over background)” value in assay [1] turned out to be 1.27 fold. Besides, the “Protein ELISA (fold over background)” value in assay [2] came to 4.8 fold. Besides, the “% of binding in the absence of HGF” value came out at 111% in assay [3] and 79% in assay [4].

B6: 445-E11 peptide-displaying phage (SEQ ID NO: 387) (peptide)
peptide: GSAGWCYTMNYVDQLCTYMAP
B6: the “WC ELISA (fold over background)” value in assay [1] turned out to be 1.43 fold. Besides, the “Protein ELISA (fold over background)” value in assay [2] was 3.7 fold. For the same molecule, the “% of binding in the absence of HGF” value in assay [3] stood at 69%; in assay [4] it was 79%.

B7: 549-G05 peptide-displaying phage (SEQ ID NO: 392) (peptide)
peptide: GDLLVCKFDDKFWTETCEWADP
As to B7, the “WC ELISA (fold over background)” value in assay [1] came to 1.47 fold. The “Protein ELISA (fold over background)” value in assay [2] amounted to 23.7 fold. The “% of binding in the absence of HGF” value turned out to be 28% in assay [3] and 21% in assay [4].

B8: 453-A05 peptide-displaying phage (SEQ ID NO: 382) (peptide)
peptide: GSGDPCSPGPSINGHCSVMAP
For B8, the “WC ELISA (fold over background)” value in assay [1] was determined as 1.33 fold. Also, in assay [2], the “Protein ELISA (fold over background)” value was found to be 4.5 fold. The entries for the “% of binding in the absence of HGF” value in assay [3] and in assay [4] were 51% and 28%, respectively.

B9: 445-E07 peptide-displaying phage (SEQ ID NO: 383) (peptide)
peptide: GSFWNCTTDLGAMSDCGFFAP
Turning to B9, in assay [1], the “WC ELISA (fold over background)” value is 1.37 fold. For the same molecule, in assay [2], the “Protein ELISA (fold over background)” value is 3.1 fold. Further, the “% of binding in the absence of HGF” value in assay [3] came to 82%; in assay [4], 64%.

B10: 456-E04 peptide-displaying phage (SEQ ID NO: 013) (peptide)
peptide: AGNWICNLSEMRCYPKGT
Turning to B10, the “WC ELISA (fold over background)” value in assay [1] was 1.4 fold. The “Protein ELISA (fold over background)” value in assay [2] amounted to 3.9 fold. The results for the “% of binding in the absence of HGF” value in assay [3] and in assay [4] were 82% and 81%, respectively.

B11: 546-G02 peptide-displaying phage (SEQ ID NO: 390) (peptide)
peptide: GDYDYCDFDLETYIPECHSYDP
B11: in assay [1], the “WC ELISA (fold over background)” value worked out at 1.27 fold. The “Protein ELISA (fold over background)” value in assay [2] was determined as 16.1 fold. Moreover, the “% of binding in the absence of HGF” value in assay [3] came out at 32%; in assay [4], 19%.

B12: 451-C06 peptide-displaying phage (SEQ ID NO: 386) (peptide)
peptide: GSDMNCTVLAQDQIFCFREAP
For the molecule B12, in assay [1], the “WC ELISA (fold over background)” value worked out at 1.37 fold. For the same molecule, the “Protein ELISA (fold over background)” value in assay [2] stood at 3 fold. Further, the results for the “% of binding in the absence of HGF” value in assay [3] and in assay [4] were 108% and 86%, respectively.
